The text below walks through data of article PMC6538526.

Like-named read-outs stand apart in the source and are kept apart here.

Test [1] addresses GST-BRCA2 fragment B2-9 (amino acids 3189–3418) (UniProt P51587). The test can be described thus: pull-down.
For test [2] the target is unchanged. The test can be described thus: pull-down. The source holds these as a separate data set.

The IC50 is the point on the concentration scale where inhibition reaches its midpoint. Low values mean greater potency, high ones weaker potency.

UniProt P51587, sequence (P51587 3189-3418): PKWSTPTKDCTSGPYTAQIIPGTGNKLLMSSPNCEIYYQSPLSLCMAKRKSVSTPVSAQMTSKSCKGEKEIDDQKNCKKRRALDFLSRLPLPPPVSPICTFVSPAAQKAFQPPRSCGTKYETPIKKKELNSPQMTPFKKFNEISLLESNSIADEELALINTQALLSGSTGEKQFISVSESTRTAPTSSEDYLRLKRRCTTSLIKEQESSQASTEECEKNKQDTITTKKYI

As to “purified cyclin A (from UniProt P20248 1-432) (natural protein)”, the results for the IC50 in test [1] and in test [2] were 29.5 nM and 28.5 nM, respectively.
